Measurements taken from IntAct's records for PubMed 30488537.

B1: Prelamin-A/C (Homo sapiens), P02545 (parent)
chain: METPSQRRATRSGAQASSTPLSPTRITRLQEKEDLQELNDRLAVYIDRVRSLETENAGLRLRITESEEVVSREVSGIKAAYEAELGDARKTLDSVAKERARLQLELSKVREEFKELKARNTKKEGDLIAAQARLKDLEALLNSKEAALSTALSEKRTLEGELHDLRGQVAKLEAALGEAKKQLQDEMLRRVDAENRLQTMKEELDFQKNIYSEELRETKRRHETRLVEIDNGKQREFESRLADALQELRAQHEDQVEQYKKELEKTYSAKLDNARQSAERNSNLVGAAHEELQQSRIRIDSLSAQLSQLQKQLAAKEAKLRDLEDSLARERDTSRRLLAEKEREMAEMRARMQQQLDEYQELLDIKLALDMEIHAYRKLLEGEEERLRLSPSPTSQRSRGRASSHSSQTQGGGSVTKKRKLESTESRSSFSQHARTSGRVAVEEVDEEGKFVRLRNKSNEDQSMGNWQIKRQNGDDPLLTYRFPPKFTLKAGQVVTIWAAGAGATHSPPTDLVWKAQNTWGCGNSLRTALINSTGEEVAMRKLVRSVTVVEDDEDEDGDDLLHHHHGSHCSSSGDPAEYNLRSRTVLCGTCGQPADKASASGSGAQVGGPISSGSSASSVTVTRSYRSVGGSGGGSFGDNLVTRSYLLGNSSPRTQSPQNCSIM
partner: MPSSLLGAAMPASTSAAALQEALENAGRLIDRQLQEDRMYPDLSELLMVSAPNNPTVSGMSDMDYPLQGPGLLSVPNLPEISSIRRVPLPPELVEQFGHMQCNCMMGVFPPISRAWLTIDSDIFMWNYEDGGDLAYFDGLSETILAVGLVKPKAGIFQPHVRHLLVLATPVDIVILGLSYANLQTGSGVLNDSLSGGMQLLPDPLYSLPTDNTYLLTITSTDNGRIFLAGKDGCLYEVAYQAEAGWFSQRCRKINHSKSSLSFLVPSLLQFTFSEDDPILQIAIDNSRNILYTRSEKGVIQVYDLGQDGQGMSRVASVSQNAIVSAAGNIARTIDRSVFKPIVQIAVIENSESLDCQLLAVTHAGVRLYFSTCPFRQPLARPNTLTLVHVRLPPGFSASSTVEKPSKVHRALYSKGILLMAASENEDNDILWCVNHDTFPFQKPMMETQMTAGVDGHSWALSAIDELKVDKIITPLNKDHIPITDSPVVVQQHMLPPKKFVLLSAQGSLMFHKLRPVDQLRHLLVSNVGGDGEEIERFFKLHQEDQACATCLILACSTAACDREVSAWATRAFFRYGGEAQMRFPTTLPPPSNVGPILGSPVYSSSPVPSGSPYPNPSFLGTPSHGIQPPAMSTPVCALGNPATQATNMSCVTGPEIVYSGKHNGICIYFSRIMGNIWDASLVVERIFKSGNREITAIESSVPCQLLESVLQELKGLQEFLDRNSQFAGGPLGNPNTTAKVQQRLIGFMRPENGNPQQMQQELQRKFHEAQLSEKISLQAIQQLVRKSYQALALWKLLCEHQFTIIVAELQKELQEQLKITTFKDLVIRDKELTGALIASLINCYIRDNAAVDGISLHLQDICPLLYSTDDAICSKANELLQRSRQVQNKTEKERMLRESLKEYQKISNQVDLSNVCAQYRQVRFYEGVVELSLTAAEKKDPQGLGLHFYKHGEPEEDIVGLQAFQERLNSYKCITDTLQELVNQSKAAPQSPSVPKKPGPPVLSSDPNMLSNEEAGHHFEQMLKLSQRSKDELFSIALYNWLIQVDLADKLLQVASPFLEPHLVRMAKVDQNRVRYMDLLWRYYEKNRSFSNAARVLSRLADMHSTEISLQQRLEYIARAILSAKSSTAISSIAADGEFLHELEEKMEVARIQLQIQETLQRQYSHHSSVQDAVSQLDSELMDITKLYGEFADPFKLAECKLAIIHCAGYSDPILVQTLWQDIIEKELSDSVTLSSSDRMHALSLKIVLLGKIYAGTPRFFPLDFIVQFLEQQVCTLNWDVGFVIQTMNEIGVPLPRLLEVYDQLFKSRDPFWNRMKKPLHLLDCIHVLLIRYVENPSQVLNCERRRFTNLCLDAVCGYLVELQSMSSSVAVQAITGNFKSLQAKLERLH

Variants of: B1
Details: with nu155_human NUP155, O75694

| Variant | effect of a mutation on the interaction |
| --- | --- |
| R399C | decreasing interaction strength |

Variants of: B1
Details: with nu155_human NUP155, O75694
Remark: another data set of the same source

| Variant | effect of a mutation on the interaction |
| --- | --- |
| R399C | with no effect |
